# US20210395725A1
# Legend:
# [1] = target: wild-type human CD81 LEL (human) (UniProt P60033); test: HEK293-6E cell display flow cytometry; M38 10 µg/ml + anti-mouse F(ab)2-Alexa Fluor 555; secondary only 8.52
# [2] = target: hCD81 LEL mutant C4C9 (Ala134Cys/Lys144Cys and Val135Cys/Ser168Cys) (human) (UniProt P60033); test: ELISA; M38 coated at 5 µg/mL, CD81 LEL variant at 0.555556 µg/ml, anti-his-HRP
# [3] = target: wild-type human CD81 LEL (human) (UniProt P60033); test: as above
# [4] = target: hCD81 LEL mutant C4C9 (Ala134Cys/Lys144Cys and Val135Cys/Ser168Cys) (human) (UniProt P60033); test: ELISA; M38 coated at 5 µg/mL, CD81 LEL variant at 0.002286 µg/ml, anti-his-HRP
# [5] = target: wild-type human CD81 LEL (human) (UniProt P60033); test: as above
# [6] = target: hCD81 LEL mutant C4C9 (Ala134Cys/Lys144Cys and Val135Cys/Ser168Cys) (human) (UniProt P60033); test: ELISA; M38 coated at 5 µg/mL, CD81 LEL variant at 0.020576 µg/ml, anti-his-HRP
# [7] = target: wild-type human CD81 LEL (human) (UniProt P60033); test: as above
# [8] = target: hCD81 LEL mutant C4C9 (Ala134Cys/Lys144Cys and Val135Cys/Ser168Cys) (human) (UniProt P60033); test: ELISA; M38 coated at 5 µg/mL, CD81 LEL variant at 1.666667 µg/ml, anti-his-HRP
# [9] = target: wild-type human CD81 LEL (human) (UniProt P60033); test: as above
# [10] = target: hCD81 LEL mutant C4C9 (Ala134Cys/Lys144Cys and Val135Cys/Ser168Cys) (human) (UniProt P60033); test: ELISA; M38 coated at 5 µg/mL, CD81 LEL variant at 5 µg/ml, anti-his-HRP
# [11] = target: wild-type human CD81 LEL (human) (UniProt P60033); test: as above
# [12] = target: hCD81 LEL mutant C4C9 (Ala134Cys/Lys144Cys and Val135Cys/Ser168Cys) (human) (UniProt P60033); test: ELISA; M38 coated at 5 µg/mL, CD81 LEL variant at 0.185185 µg/ml, anti-his-HRP
# [13] = target: wild-type human CD81 LEL (human) (UniProt P60033); test: as above
# [14] = target: hCD81 LEL mutant C4C9 (Ala134Cys/Lys144Cys and Val135Cys/Ser168Cys) (human) (UniProt P60033); test: ELISA; M38 coated at 5 µg/mL, CD81 LEL variant at 0.006859 µg/ml, anti-his-HRP
# [15] = target: wild-type human CD81 LEL (human) (UniProt P60033); test: as above
# [16] = target: hCD81 LEL mutant C4C9 (Ala134Cys/Lys144Cys and Val135Cys/Ser168Cys) (human) (UniProt P60033); test: ELISA; M38 coated at 5 µg/mL, CD81 LEL variant at 0.061728 µg/ml, anti-his-HRP
# [17] = target: wild-type human CD81 LEL (human) (UniProt P60033); test: as above
# [18] = target: wild-type human CD9 LEL (human) (UniProt P21926); test: yeast display flow cytometry; MEM-61 10 µg/ml + goat anti-mouse (Fab′)2-Alexa Fluor 555; induction at 37 °C; secondary only 4.21
# [19] = target: wild-type human CD9 LEL (human) (UniProt P21926); test: yeast display flow cytometry; MEM-61 10 µg/ml + goat anti-mouse (Fab′)2-Alexa Fluor 555; induction at 20 °C; secondary only 1.14
# [20] = target: streptavidin-Alexafluor 647 (UniProt P22629); test: yeast display flow cytometry; secondary reagent only
# Sequence of streptavidin-Alexafluor 647 (P22629 37-163 limits assumed): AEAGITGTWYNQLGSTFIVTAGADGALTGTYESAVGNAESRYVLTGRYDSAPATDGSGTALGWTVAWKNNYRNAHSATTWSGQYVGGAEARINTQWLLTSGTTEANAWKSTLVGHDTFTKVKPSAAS
# Sequence of wild-type human CD81 LEL (human) (P60033 113-201 limits assumed): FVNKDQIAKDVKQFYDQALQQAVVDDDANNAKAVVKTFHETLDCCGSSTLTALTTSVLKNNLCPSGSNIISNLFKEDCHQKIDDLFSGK
# Sequence of hCD81 LEL mutant C4C9 (Ala134Cys/Lys144Cys and Val135Cys/Ser168Cys) (human) (P60033 114-202 A134C/V135C/K144C/S168C): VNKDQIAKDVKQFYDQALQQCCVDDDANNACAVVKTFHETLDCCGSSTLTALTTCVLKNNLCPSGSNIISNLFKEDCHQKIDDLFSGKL
# Sequence of wild-type human CD9 LEL (human) (P21926 113-192 limits assumed): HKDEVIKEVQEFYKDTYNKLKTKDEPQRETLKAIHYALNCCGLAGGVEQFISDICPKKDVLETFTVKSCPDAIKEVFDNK
substance,measurement,setting,value
anti-hCD81 M38 antibody,MFI,[1],83.8
same,A 450/620,[2],3.73
same,A 450/620,[3],3.63
same,A 450/620,[4],0.187
same,A 450/620,[5],0.177
same,A 450/620,[6],1.98
same,A 450/620,[7],1.89
same,A 450/620,[8],3.82
same,A 450/620,[9],3.69
same,A 450/620,[10],3.83
same,A 450/620,[11],3.97
same,A 450/620,[12],3.69
same,A 450/620,[13],3.68
same,A 450/620,[14],0.75
same,A 450/620,[15],0.616
same,A 450/620,[16],3.46
same,A 450/620,[17],3.53
anti-CD9 specific antibody MEM-61,percentage of positive yeast cells,[18],26.2%
same,percentage of positive yeast cells,[19],46.4%
wild-type human CD81 LEL (from UniProt P60033 113-201),median fluorescence,[20],28.3
